# Earlier results, collected in article PMC9659328.
# Biological target: thrombin (Homo sapiens) (UniProt P00734)
substance,measurement,value
thrombomodulin (from UniProt P07204),Kd,2 nM
